The values that follow come from patent publication US20240141072A1.

The target of the assay is human DLL3 on DLL3-expressing tumor cell lines (human) (UniProt Q9NYJ7). Description: cell-based or functional assay.
human DLL3 on DLL3-expressing tumor cell lines (human), sequence (Q9NYJ7 27-618 limits assumed): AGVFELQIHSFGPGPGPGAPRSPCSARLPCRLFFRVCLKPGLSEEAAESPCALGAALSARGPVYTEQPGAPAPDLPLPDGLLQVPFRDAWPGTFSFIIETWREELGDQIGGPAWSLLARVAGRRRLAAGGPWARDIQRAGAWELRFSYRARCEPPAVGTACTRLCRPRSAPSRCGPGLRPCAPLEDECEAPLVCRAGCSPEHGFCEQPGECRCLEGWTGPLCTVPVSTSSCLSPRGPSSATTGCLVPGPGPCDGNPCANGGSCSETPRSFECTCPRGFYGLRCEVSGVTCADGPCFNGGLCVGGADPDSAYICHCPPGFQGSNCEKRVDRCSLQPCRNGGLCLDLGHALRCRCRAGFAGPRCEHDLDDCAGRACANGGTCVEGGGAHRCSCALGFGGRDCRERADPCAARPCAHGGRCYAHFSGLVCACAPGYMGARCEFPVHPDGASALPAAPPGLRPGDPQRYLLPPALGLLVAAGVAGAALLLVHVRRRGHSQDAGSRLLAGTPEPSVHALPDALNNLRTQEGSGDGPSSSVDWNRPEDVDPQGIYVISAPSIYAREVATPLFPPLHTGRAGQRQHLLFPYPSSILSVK

B1: 4D09-M34L anti-DLL3 trispecific protein (protein, not shown: large carriers)
chain: EVQLVESGGGLVQPGGSLTLSCAASGSSVKFLSLAWYRQAPGKKRELVAGISADGSTDYILSVKGRFTISRDNAKNSVYLQMNSLRAEDTAVYYCYAYEWTTRYTYWGQGTLVTVSS
Take B1: the DMS-153 TDCC EC50 turned out to be 0.054 nM and the fold TDCC potency over the parental molecule DH6 was 4.4 fold.

B2: 4H11-M34L anti-DLL3 trispecific protein (protein, not shown: large carriers)
chain: EVQLVESGGGLVQPGGSLTLSCAASGSSVSRLSLAWYRQAPGKKRELVAGISVDGSTDYIDSVKGRFTISRDNAKNSVYLQMNSLRAEDTAVYYCYAYRWTTRLTYWGQGTLVTVSS
B2: the DMS-153 TDCC EC50 turned out to be 0.13 nM.

B3: 2F11 anti-DLL3 trispecific protein (protein, not shown: large carriers)
chain: EVQLVESGGGLVQPGGSLTLSCVASGSVSSINAMGWYRRAPGKQRELVAGISSDGSKVYKDSVKGRFTISRDNAKNSVYLQMNSLRAEDTAVYYCYYFRTVSGSSMGYWGQGTLVTVSS
Consider B3, for which the DMS-153 TDCC EC50 was 0.049 nM.

B4: 2E05-M106Q anti-DLL3 trispecific protein (protein, not shown: large carriers)
chain: EVQLVESGGGLVQPGGSLTLSCVASGSPSSINAYGWYRRAPGKQRELVAGISSDGSKVYSDSVKGRFTISRDNAKNSVYLQMNSLRAEDTAVYYCYYFRTVSGSSQSYWGQGTLVTVSS
On to B4, for which the DMS-153 TDCC EC50 was determined as 0.041 nM and the fold TDCC potency over the parental molecule DH43 came to 6.6 fold.

B5: 2E05-M106Y anti-DLL3 trispecific protein (protein, not shown: large carriers)
chain: EVQLVESGGGLVQPGGSLTLSCVASGSPSSINAYGWYRRAPGKQRELVAGISSDGSKVYSDSVKGRFTISRDNAKNSVYLQMNSLRAEDTAVYYCYYFRTVSGSSYSYWGQGTLVTVSS
As to B5, the DMS-153 TDCC EC50 was found to be 0.063 nM.
